From the nanobody polyreactivity screen of Harvey et al. (2022)

Assay: yeast display, Sf9 membrane polyspecificity reagent, FACS + sequencing; frameworks hold sequencing errors
Procedure, shortened: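 Galactose-induced (36–48 hours) yeast carrying a synthetic nanobody display library were exposed to 10% biotinylated, detergent-solubilized Sf9 membrane reagent at 4 °C for 1 hour. FACS followed streptavidin microbead enrichment, using low and high (top ~1%) gates for expression (anti-HA) and reagent binding (streptavidin). Colony PCR, MiSeq 2 × 250 sequencing and CDR-length filtering followed. Labels for polyreactivity reflect the gate of origin.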

Question: With “QVQLVESGGGLVQAGGSLRLSCAASGLIFPSYTMGWYRQAPGKDRELVAAITFSGDSTNYADSVKGRFTISRDNAKNTVYLQMNSLKPEDTAVYNCAASQVSDTTRFGYWGQGTQVTVSS” as the sequence, how does the “polyreactivity (PSR sort gate)” value read?
Answer: low polyreactivity

Question: With “QVQLGESGGGLVQAGGSLRLSCAASGRIFSAYAMGWSRQEPGKERELVAAITRSGGSTYYADSVKGRFTISRDNAKNTVYLQMNSLKPEDTAVYYCAAGYFVSDAWSWYHWVEHGYWGQGTQVTVSS” as the sequence, how does the “polyreactivity (PSR sort gate)” value read?
Answer: high polyreactivity

Question: Which “polyreactivity (PSR sort gate)” value does the source give for “QVQLVESGGGLDQAGGSLRLSCAASGRTFSYYAMGWYRQAPVKERELVAGISWRGTSTYADSVKGRFTISRDNAKNTFYLQMNRLKPEHTAVYYCNAEVTGHYSYHKFDYWGQGTQVTVSS” here?
Answer: low polyreactivity

Question: Which “polyreactivity (PSR sort gate)” value does the source give for “QVQLVESGGCLVQAGGSLRLSCAASGSIFYWYAMGWFRQAPGKARELVAAITWSGVSTYYADSVKGRFTISRDNAKNTVDLQMNSLKREDTAVYYCAALVFGYSVFPYSYWGQGTQVTVSS” here?
Answer: high polyreactivity

Question: For “QDQLVESGGGLLQAGGSLRLSCAASGLTFSDYAMGWYRQAPGKEREFVAAITRNGGSTRYADSVKGRFTISRDNAKNTVYVQMNSVKPEDTAVFYCHKVSFVYSRSKGFYYTYLKFEYWGQGTQVTVSS”, which “polyreactivity (PSR sort gate)” value is on record?
Answer: low polyreactivity

Question: For “QVQLVESGVGLVQAGGSLRLSCAASGSTFITYAMGWYRQAPGKERELVAAISTGGSTYYADSVKGRFTISRDNAKNTVYLQMNSLKPEDTAVYYCNAYSSSRGSTLQYSLQYDYWGQGTQVTVSS”, which “polyreactivity (PSR sort gate)” value is on record?
Answer: low polyreactivity

Question: For “QVQLVESGVGLVQAGGSLRLSCAASGRTFTPYAMGWYRQAPGKEREFVAAISIVGRTKYADSVKGRFTISRDNAKNTVYLQMNSLKPEDTAVYYCNAQDSRDRKFYWGYTRGHWGLGTQVTVSS”, which “polyreactivity (PSR sort gate)” value is on record?
Answer: low polyreactivity

Question: For “QVQLVESGGGLVQAGGSLRLSCAASGSTFGRNTMGWYRPAPGKERELVAAITAGDTTTYADSVKGRFTISRDNAKNTDYLQMKSLKREDTAVYYCAVDPVRGRDYSWMDYWGQGSQVTVSS”, which “polyreactivity (PSR sort gate)” value is on record?
Answer: low polyreactivity

Question: Which “polyreactivity (PSR sort gate)” value does the source give for “QVQLVESGGGLVQAGGSLRLSCAASGSTLIDNVMGWYRQAPGKERELVASITSSDGTTYADSVKGRFTISRDNAKNTVYLQMNSLKPEDTAVYYCAARPWYGTYNYWGQGTQVTVSS” here?
Answer: low polyreactivity

Question: Which “polyreactivity (PSR sort gate)” value does the source give for “QVQLQESGGGLVQAGGSLRLSCAASGTIFTARFMGWYRQAPGKERELVATITDGGNTNHADSVKGRFTISRDNAKNTVYLQMNSLKPEDAAVDYCAAGEVDNDTLLYWGQGSQVTVSS” here?
Answer: low polyreactivity

Question: Which “polyreactivity (PSR sort gate)” value does the source give for “QVQLVESGGGLVQAGGSLRLSCAASGNTFYPHAMGWYRQAPGTERELVAAISSTGGRTYYADSVKGRFTISRDNAKNTVYLQMNSLKPEDTAVYFCNTYACVAGDYWGQGTQVTVSS” here?
Answer: high polyreactivity

Question: With “QVQLVDSGGGLVQAGGSLRLSCAASGRTYTYYAMGWYRQAPGKERELVAAISKSGGSTYYADSVKGRFTISRDNAKNTVYLQMNSLKPEDTAVYYFAKVYRYSSLYYYWGQGTQVTVSS” as the sequence, how does the “polyreactivity (PSR sort gate)” value read?
Answer: low polyreactivity

Question: With “QVQLLESRGGLVQAGGSLRLSCAASGSIFYIYAIGWYRQAPGKEREFVAAIRQSDGRTYYADSVKGRFTISRDNAKNTVYLQRTSLNPEDTAVYYCAAQYPVNYIWGYNDWGQGTQVTVSS” as the sequence, how does the “polyreactivity (PSR sort gate)” value read?
Answer: high polyreactivity

Question: Which “polyreactivity (PSR sort gate)” value does the source give for “QVQLVESGGGLVQAGGSLRLSCAASGLTFRVYDMGWYRQAPGKERELVAAITGGGRTYYADSVKGRFTISRDNAKNTVYLQMNSLKPEDTAVYYCAARTRVTKREYDYWGQGTQVTVSS” here?
Answer: high polyreactivity

Question: For “QVQLVESGGGLVQAGGSLRLSCAASGSIFRPYAMGWYRQAPGKERVLVAAISRRGGSTYYADSVKGRFTISRDNAKNTVYLQMNSLKPEDTAVYYCAADHSRPSPYGYGYWGQGTQVTVSS”, which “polyreactivity (PSR sort gate)” value is on record?
Answer: high polyreactivity

Question: For “QVQLVESGGGLVQAGGSLRLSCAASGFIFYYNAMGWYRPAPGTERELVATINNDGGSSTYADSVKGRFTISRDNAKNTVYLQMNSLKPEDTAVYYCNAEAFYFTHTVWIPYYYWGQGTQVTVLS”, which “polyreactivity (PSR sort gate)” value is on record?
Answer: low polyreactivity

Question: With “QVQLVESGGGLVQAGGSLRLSCAASGSIFPRYFMGWYRQAPGKERELVAAISQSGGSTYYADSVKGRFTISRDNAKNTVYLQMNSLKPEDTAVYYCAAEVRGWRVDYYYWGQGTQVTVSS” as the sequence, how does the “polyreactivity (PSR sort gate)” value read?
Answer: high polyreactivity

Question: For “QVQLVESGGGLVQAGGSLRLSCAASGFTFFYYAMGWYRKAPGKERELVARISSSGGRTYYSDSVKGRFTISRDNAKNTVYLQMNSLKPEDTAVYYCNARYYYYYTRYDYWGQGTQVTVSS”, which “polyreactivity (PSR sort gate)” value is on record?
Answer: high polyreactivity

Question: Which “polyreactivity (PSR sort gate)” value does the source give for “QVQLVESGGGLVQAGRSLRLICAASGFTFYSYAMGWYRQAPGKERELVANITIGGSTYADSVKGRFTISRDNAKNTVYLQMNSLKPEDTAVYYCARGYRVVGDPLYGDYDYWGQGTQVTVSS” here?
Answer: low polyreactivity

Question: For “QVQLVESGGGLVQAGGSLRLSCAAYGFTFAAYSMGWYRQAPGKEREFVAAITSRDGTTYYADSVKGRFTISGYNAKNTVYLQMNSLKPEDTAVFYCAKDHFNWGVSEVDSWRQGTQVTVSS”, which “polyreactivity (PSR sort gate)” value is on record?
Answer: low polyreactivity

Question: With “QGQLEESGGGLVQAGGSLRLSCAAAGITFVDYSMGWYRQAPGKEMELVAGINWSGDGTSYADSVKGRFTISRDNAKNTVYLLMNSLKPEDTAVYDCAAYWYYYLMDYWGQGTQVTVSS” as the sequence, how does the “polyreactivity (PSR sort gate)” value read?
Answer: low polyreactivity

Question: With “QVQLVESGGGLVQAGGSLRLSCAASGSTLSKYAMGWYRQAPGKEREFVAAISRSGGSTYYADSVKGRFTISRDKAKNTVYLQMNSLKPEDTAVYYCAKVLRTFSGLYYWGQGTQVTVSS” as the sequence, how does the “polyreactivity (PSR sort gate)” value read?
Answer: high polyreactivity

Question: Which “polyreactivity (PSR sort gate)” value does the source give for “QVQLVESGGGLVQAGGSLRLSCAASGSNFQYVYAMGWYRQAPGKERELVAAINGGSGSTYYADSVKGSFTISRDNAKNTVYLQMNSLKPEDTAVYYCNRDYEYPTYPHDYWGQGTQVTVSS” here?
Answer: low polyreactivity

Question: For “QVQLVESGGGLVQAGGSLSLSCAASGSTFAFYAMGCYRQAPGKERDLVAASTRSAGSTYYADSVKGRFTISRDNATTTVYLPMNSLKREDTAVYYCAKYVSYSRTLYDYWGQGTQVTVSS”, which “polyreactivity (PSR sort gate)” value is on record?
Answer: low polyreactivity

Question: With “QVQLVESGGGLVQAGGSLRLSCAASGRTFYIYAMGWYRQAPGKERELVAAITRIDGSTYYADSVKGRFTISRDNAKNTVYLQMNSLKPEDTAVYYCAAEYGPGLTEGLYYYWGQGTQVTVSS” as the sequence, how does the “polyreactivity (PSR sort gate)” value read?
Answer: high polyreactivity

Question: Which “polyreactivity (PSR sort gate)” value does the source give for “QVQLVESGGGLVQAGGSLRLSCAASGLIFYWNAMGWYRQAPGKERELVAGITSGGDTNYADSVKGRFTISRDNAKNTVYLQMNSLKPEDTAVYDCAAEGFRGYGYWGQGTQVTVSS” here?
Answer: low polyreactivity

Question: Which “polyreactivity (PSR sort gate)” value does the source give for “QVQLVESGGGLVQAGGSLRLSCAASGSIFRRYDMGWYRQAPGTERELVAAISSSGGSTYYADSVKGRFTISRDNAKNTVYLQMNILKPEDTAVYYCNTASNRYPGWRAEFDYWGQGTQVTVSS” here?
Answer: low polyreactivity

Question: For “QVQLVESGGGLVQAGGSLRLSCAASGRIFPDNAMGWYRQAPGKERELVASITSGASTNYADSVKGRFTISRDNAKNTVFLQMNSLKPEDTAVYYCAAGYSYYDDYDYWGQGTQVTVSS”, which “polyreactivity (PSR sort gate)” value is on record?
Answer: high polyreactivity

Question: With “QVQLVESGGGLVQAGGSLRISCAASGYTFGKNAMGWYRQAPGKERELVAGISSRGGSTYYADSVKGRFTISRDNAKNTLYLQMNSLKPEDTAVYYCAAVAYTGGPRKLGFNYWGQGTQVTVSS” as the sequence, how does the “polyreactivity (PSR sort gate)” value read?
Answer: high polyreactivity

Question: Which “polyreactivity (PSR sort gate)” value does the source give for “QVQLVESGGGLVQAGGSLRLSCAASGNIFQRYAMGWYRQAPGKERELVAAISGNGGNTFYADSVKGRFTISRDNAKNSVYLQMNSLKPEDTAVYYCNTVYVVYGYDYWGQGTQVTVSS” here?
Answer: high polyreactivity

Question: Which “polyreactivity (PSR sort gate)” value does the source give for “QDQLVESGGGLVQAGGSLRLSCAASGLTFDSYAMGWYRQAPGKERELVAAISWNTASTYYADSVKGRFTISRDNAKNTVYLQMNSLKPEDTAVYYCAAARSRRPHYDYWRQGTQVTVSS” here?
Answer: high polyreactivity

Question: For “QVQLVESGGGLVQAGGSLRLSCAASGGIFAANAMGWYRPAPGKERELVAAISRSGGRTYYADSVKGRFTISRDNAKNTVYLQMNSLKPEDTAVYYCAATYQASNAWYDYWGQGTQVTVSS”, which “polyreactivity (PSR sort gate)” value is on record?
Answer: high polyreactivity

Question: With “QVQLVESGRGIVQAGGSLRLSCAASGSIFWLYAMGWYRQAPGKERELVAAISWSGTSTNYADSVKGRFTISRDNAKNTVYFQMNSLKPEDTAVYYCAKRWYNQKLFGYEEEYDYWGQGTQVTVSS” as the sequence, how does the “polyreactivity (PSR sort gate)” value read?
Answer: low polyreactivity

Question: With “QVQLVESGRGLVQAGGSLRLSCAASGRTFWTYTMGCYRQAPWKEREFVAAITFGDGSTSYADYVKGRFTISRDNAKNTVFLQMNSLKQEDTAVYYCAKRWRRRFVDVWSLYDYWGHGTQVTVSS” as the sequence, how does the “polyreactivity (PSR sort gate)” value read?
Answer: low polyreactivity

Question: With “QVQLVESGGGLVQAGGSLRLSCAASGFIFYYYAMGWYRQAPGKERELVAGIDKTGGSTYYADSVKGRFTISRDNAKNTVYFQMNSLKPEDTAVYYCAAGYFFPRLRFRNYAYVYWGQGTQVTVSS” as the sequence, how does the “polyreactivity (PSR sort gate)” value read?
Answer: high polyreactivity

Question: With “QVQLVESGGGLVQAGGSLRLSCAASGFIFGHNAMGWYRQAPGKERELVADITWSGGSTYYADSVKGRFTISRDNAKNTVYLQMNSLKPEDTAVYYCNARGRASATGRRGRPDPFGYWGQGTQVTVSS” as the sequence, how does the “polyreactivity (PSR sort gate)” value read?
Answer: high polyreactivity

Question: Which “polyreactivity (PSR sort gate)” value does the source give for “QVQLVESGGGLVQAGGSLRLSCAASGITFNAYVMGWYRQAPGKERELVATISQSGGSTYYADSVKGRFTISRDNAKNTVYLQMNSLKPEDTADYYCAARKYGYSYTVTRYYWGQGTQVTVSS” here?
Answer: high polyreactivity

Question: For “QVQLVESGGGLVQAGGSLRLSCAASGFTFRWYAMGWYRQAPGKERELVADITRHGGSTYYADSVKGRFTISRDNAKNTVYLQMNSLKPEDTAVYYCAKQNETPWQAYYFDWPEFDYWGQGTQVTVSS”, which “polyreactivity (PSR sort gate)” value is on record?
Answer: low polyreactivity

Question: Which “polyreactivity (PSR sort gate)” value does the source give for “HVQLVESGGGLVQAGGSLRLSCAASGFIFDVNAMGWYRQAPGKERELVAVIRGSGGSTYYADSVKGRFTISRDNAKNTVYLQMNSLKPADTAVYYCAAAVNHVAYHYNYWGQGTQVTVSS” here?
Answer: high polyreactivity

Question: Which “polyreactivity (PSR sort gate)” value does the source give for “QVQLVESGGGLVQAGGSLRLSCAASGSTFLFYTMGWYRQAPGKERELVAAINSGGSTNYADSVKGRFTISRDNAKNTVYLQMNSLKPEDTAVYYCNADRTYVYKYTYSFYYWGQGTQVTVSS” here?
Answer: low polyreactivity
